The chains are these.
B1: HA-tagged TGF-β type I receptor ALK5 [not stated] / Myc-tagged mouse Fscn1 [mouse] (parent)
chain 1: not shown
chain 2: LQCFCHLCTKDNFTCVTDGLCFVSVTETTDKVIHNSMCIAEIDLIPRDRPFVCAPSSKTGSVTTTYCCNQDHCNKIELPTTVKSSPGLGPVELAAVIAGPVCFVCISLMLMVYICHNRTVIHHRVPNEEDPSLDRPFISEGTTLKDLIYDMTTSGSGSGLPLLVQRTIARTIVLQESIGKGRFGEVWRGKWRGEEVAVKIFSSREERSWFREAEIYQTVMLRHENILGFIAADNKDNGTWTQLWLVSDYHEHGSLFDYLNRYTVTVEGMIKLALSTASGLAHLHMEIVGTQGKPAIAHRDLKSKNILVKKNGTCCIADLGLAVRHDSATDTIDIAPNHRVGTKRYMAPEVLDDSINMKHFESFKRADIYAMGLVFWEIARRCSIGGIHEDYQLPYYDLVPSDPSVEEMRKVVCEQKLRPNIPNRWQSCEALRVMAKIMRECWYANGAARLTALRIKKTLSQLSQQEGIKM
B2: HA-tagged Activin/Nodal type I receptor ALK4 [not stated] / Myc-tagged mouse Fscn1 [mouse] (parent)
chain 1: not shown
chain 2: SGPRGVQALLCACTSCLQANYTCETDGACMVSIFNLDGMEHHVRTCIPKVELVPAGKPFYCLSSEDLRNTHCCYTDYCNRIDLRVPSGHLKEPEHPSMWGPVELVGIIAGPVFLLFLIIIIVFLVINYHQRVYHNRQRLDMEDPSCEMCLSKDKTLQDLVYDLSTSGSGSGLPLFVQRTVARTIVLQEIIGKGRFGEVWRGRWRGGDVAVKIFSSREERSWFREAEIYQTVMLRHENILGFIAADNKDNGTWTQLWLVSDYHEHGSLFDYLNRYTVTIEGMIKLALSAASGLAHLHMEIVGTQGKPGIAHRDLKSKNILVKKNGMCAIADLGLAVRHDAVTDTIDIAPNQRVGTKRYMAPEVLDETINMKHFDSFKCADIYALGLVYWEIARRCNSGGVHEEYQLPYYDLVPSDPSIEEMRKVVCDQKLRPNIPNWWQSYEALRVMGKMMRECWYANGAARLTALRIKKTLSQLSVQEDVKI

In the first assay the parent is B1. Nature of the assay: co-immunoprecipitation (IP anti-Myc, IB anti-HA) with band quantification. Particulars: HEK293 cells, 60 mm dishes, CA-ALK5-HA 2 μg, Myc-mFscn1 1.5 μg, no TGF-β1 or Activin A in the CA lane.
Consider chain 2 T171D, for which the ratio to parent is 1.87.

The assay is the same for the next values; noted with them: transfected cells in 60 mm dishes, ALK5 KR-HA 2 μg, Myc-mFscn1 1.5 μg.
As for chain 2 K199R, the ratio to parent turned out to be 0.56.

In another assay the parent is B2. The description is as above. Particulars: HEK293 cells, 60 mm dishes, CA-ALK4-HA 2 μg, Myc-mFscn1 1.5 μg, no TGF-β1 or Activin A in the CA lane.
Take chain 2 T183D: the ratio to parent came out at 2.34.

These data come from publication PMC4996939.
